T1: EsCas13d, nuclease-dead (Eubacterium siraeum, UniProt B0MS50, R295A;H300A;R849A;H854A)
T1 sequence: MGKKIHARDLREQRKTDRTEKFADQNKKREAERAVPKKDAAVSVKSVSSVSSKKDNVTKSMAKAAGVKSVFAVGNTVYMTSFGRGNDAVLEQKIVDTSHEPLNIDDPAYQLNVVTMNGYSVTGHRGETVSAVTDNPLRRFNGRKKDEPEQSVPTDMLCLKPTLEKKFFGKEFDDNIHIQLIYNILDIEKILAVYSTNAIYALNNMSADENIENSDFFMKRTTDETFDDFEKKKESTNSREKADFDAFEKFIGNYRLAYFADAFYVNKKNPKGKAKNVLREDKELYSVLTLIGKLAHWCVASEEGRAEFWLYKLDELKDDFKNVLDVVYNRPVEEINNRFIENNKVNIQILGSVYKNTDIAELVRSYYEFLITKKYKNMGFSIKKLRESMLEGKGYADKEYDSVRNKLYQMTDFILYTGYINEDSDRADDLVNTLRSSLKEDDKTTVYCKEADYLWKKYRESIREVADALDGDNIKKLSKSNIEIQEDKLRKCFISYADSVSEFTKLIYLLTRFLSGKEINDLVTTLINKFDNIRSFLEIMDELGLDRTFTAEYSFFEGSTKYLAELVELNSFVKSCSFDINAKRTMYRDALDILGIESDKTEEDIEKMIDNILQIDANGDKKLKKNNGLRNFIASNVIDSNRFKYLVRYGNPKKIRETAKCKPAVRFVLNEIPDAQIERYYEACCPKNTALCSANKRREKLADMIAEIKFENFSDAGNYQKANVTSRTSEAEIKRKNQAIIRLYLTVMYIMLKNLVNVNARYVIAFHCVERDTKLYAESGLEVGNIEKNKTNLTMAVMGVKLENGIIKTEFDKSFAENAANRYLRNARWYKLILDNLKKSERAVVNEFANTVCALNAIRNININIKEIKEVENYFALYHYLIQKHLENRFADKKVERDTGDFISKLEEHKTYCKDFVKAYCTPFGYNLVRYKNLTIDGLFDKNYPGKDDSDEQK

B1: target 3 insU 3' of 22,insA 3' of 22 (mixed)
RNA 1: CACCCGUGCAAAAUUGCAGGGGUCUAAAACGACCUGAAUAUUUCAGAUCAAA
RNA 2: GGGAAUGGAUCCACAUCUACGAAUUCGUUUUAUUGAUCUGAAAUAUUCAGGUCUGCAGAUCGGAAGAGCACACGU
B2: target 3 insA 3' of 22,insA 3' of 8 (mixed)
RNA 1: CACCCGUGCAAAAUUGCAGGGGUCUAAAACGACCUGAAUAUUUCAGAUCAAA
RNA 2: GGGAAUGGAUCCACAUCUACGAAUUCGUUUAUUGAUCUGAAAUAUAUCAGGUCUGCAGAUCGGAAGAGCACACGU
B3: target 3 A13G,U22A (mixed)
RNA 1: CACCCGUGCAAAAUUGCAGGGGUCUAAAACGACCUGAAUAUUUCAGAUCAAA
RNA 2: GGGAAUGGAUCCACAUCUACGAAUUCGUUAUUGAUCUGGAAUAUUCAGGUCUGCAGAUCGGAAGAGCACACGU
B4: target 3 U2G,A5C (mixed)
RNA 1: CACCCGUGCAAAAUUGCAGGGGUCUAAAACGACCUGAAUAUUUCAGAUCAAA
RNA 2: GGGAAUGGAUCCACAUCUACGAAUUCGUUUUUGAUCUGAAAUAUUCCGGGCUGCAGAUCGGAAGAGCACACGU
B5: target 3 C1A,A11G (mixed)
RNA 1: CACCCGUGCAAAAUUGCAGGGGUCUAAAACGACCUGAAUAUUUCAGAUCAAA
RNA 2: GGGAAUGGAUCCACAUCUACGAAUUCGUUUUUGAUCUGAAGUAUUCAGGUAUGCAGAUCGGAAGAGCACACGU
B6: target 3 insC 3' of 3,insA 3' of 2 (mixed)
RNA 1: CACCCGUGCAAAAUUGCAGGGGUCUAAAACGACCUGAAUAUUUCAGAUCAAA
RNA 2: GGGAAUGGAUCCACAUCUACGAAUUCGUUUUUGAUCUGAAAUAUUCAGGCUACUGCAGAUCGGAAGAGCACACGU
B7: target 3 C1U,A5U (mixed)
RNA 1: CACCCGUGCAAAAUUGCAGGGGUCUAAAACGACCUGAAUAUUUCAGAUCAAA
RNA 2: GGGAAUGGAUCCACAUCUACGAAUUCGUUUUUGAUCUGAAAUAUUCUGGUUUGCAGAUCGGAAGAGCACACGU
B8: target 3 A5U (mixed)
RNA 1: CACCCGUGCAAAAUUGCAGGGGUCUAAAACGACCUGAAUAUUUCAGAUCAAA
RNA 2: GGGAAUGGAUCCACAUCUACGAAUUCGUUUUUGAUCUGAAAUAUUCUGGUCUGCAGAUCGGAAGAGCACACGU
B9: target 3 G4A,U22G (mixed)
RNA 1: CACCCGUGCAAAAUUGCAGGGGUCUAAAACGACCUGAAUAUUUCAGAUCAAA
RNA 2: GGGAAUGGAUCCACAUCUACGAAUUCGUUGUUGAUCUGAAAUAUUCAAGUCUGCAGAUCGGAAGAGCACACGU
B10: target 3 G4U,U8C (mixed)
RNA 1: CACCCGUGCAAAAUUGCAGGGGUCUAAAACGACCUGAAUAUUUCAGAUCAAA
RNA 2: GGGAAUGGAUCCACAUCUACGAAUUCGUUUUUGAUCUGAAAUACUCAUGUCUGCAGAUCGGAAGAGCACACGU
B11: target 3 insA 3' of 6,insG 3' of 6 (mixed)
RNA 1: CACCCGUGCAAAAUUGCAGGGGUCUAAAACGACCUGAAUAUUUCAGAUCAAA
RNA 2: GGGAAUGGAUCCACAUCUACGAAUUCGUUUUUGAUCUGAAAUAUUCAGAGGUCUGCAGAUCGGAAGAGCACACGU
B12: target 3 insG 3' of 8,insC 3' of 4 (mixed)
RNA 1: CACCCGUGCAAAAUUGCAGGGGUCUAAAACGACCUGAAUAUUUCAGAUCAAA
RNA 2: GGGAAUGGAUCCACAUCUACGAAUUCGUUUUUGAUCUGAAAUAUGUCAGCGUCUGCAGAUCGGAAGAGCACACGU
B13: target 3 C1G,U21A (mixed)
RNA 1: CACCCGUGCAAAAUUGCAGGGGUCUAAAACGACCUGAAUAUUUCAGAUCAAA
RNA 2: GGGAAUGGAUCCACAUCUACGAAUUCGUUUAUGAUCUGAAAUAUUCAGGUGUGCAGAUCGGAAGAGCACACGU
B14: target 3 G3A,G4C (mixed)
RNA 1: CACCCGUGCAAAAUUGCAGGGGUCUAAAACGACCUGAAUAUUUCAGAUCAAA
RNA 2: GGGAAUGGAUCCACAUCUACGAAUUCGUUUUUGAUCUGAAAUAUUCACAUCUGCAGAUCGGAAGAGCACACGU
B15: target 3 A12G (mixed)
RNA 1: CACCCGUGCAAAAUUGCAGGGGUCUAAAACGACCUGAAUAUUUCAGAUCAAA
RNA 2: GGGAAUGGAUCCACAUCUACGAAUUCGUUUUUGAUCUGAGAUAUUCAGGUCUGCAGAUCGGAAGAGCACACGU
B16: target 3 U2A,U8G (mixed)
RNA 1: CACCCGUGCAAAAUUGCAGGGGUCUAAAACGACCUGAAUAUUUCAGAUCAAA
RNA 2: GGGAAUGGAUCCACAUCUACGAAUUCGUUUUUGAUCUGAAAUAGUCAGGACUGCAGAUCGGAAGAGCACACGU
B17: target 3 insG 3' of 7,insA 3' of 2 (mixed)
RNA 1: CACCCGUGCAAAAUUGCAGGGGUCUAAAACGACCUGAAUAUUUCAGAUCAAA
RNA 2: GGGAAUGGAUCCACAUCUACGAAUUCGUUUUUGAUCUGAAAUAUUGCAGGUACUGCAGAUCGGAAGAGCACACGU
B18: target 3 insU 3' of 4,insU 3' of 4 (mixed)
RNA 1: CACCCGUGCAAAAUUGCAGGGGUCUAAAACGACCUGAAUAUUUCAGAUCAAA
RNA 2: GGGAAUGGAUCCACAUCUACGAAUUCGUUUUUGAUCUGAAAUAUUCAGUUGUCUGCAGAUCGGAAGAGCACACGU
B19: target 3 C1U,A11G (mixed)
RNA 1: CACCCGUGCAAAAUUGCAGGGGUCUAAAACGACCUGAAUAUUUCAGAUCAAA
RNA 2: GGGAAUGGAUCCACAUCUACGAAUUCGUUUUUGAUCUGAAGUAUUCAGGUUUGCAGAUCGGAAGAGCACACGU
B20: target 3 insA 3' of 6,insA 3' of 3 (mixed)
RNA 1: CACCCGUGCAAAAUUGCAGGGGUCUAAAACGACCUGAAUAUUUCAGAUCAAA
RNA 2: GGGAAUGGAUCCACAUCUACGAAUUCGUUUUUGAUCUGAAAUAUUCAAGGAUCUGCAGAUCGGAAGAGCACACGU
B21: target 3 C1U,C6A (mixed)
RNA 1: CACCCGUGCAAAAUUGCAGGGGUCUAAAACGACCUGAAUAUUUCAGAUCAAA
RNA 2: GGGAAUGGAUCCACAUCUACGAAUUCGUUUUUGAUCUGAAAUAUUAAGGUUUGCAGAUCGGAAGAGCACACGU
B22: target 3 C1A,A5U (mixed)
RNA 1: CACCCGUGCAAAAUUGCAGGGGUCUAAAACGACCUGAAUAUUUCAGAUCAAA
RNA 2: GGGAAUGGAUCCACAUCUACGAAUUCGUUUUUGAUCUGAAAUAUUCUGGUAUGCAGAUCGGAAGAGCACACGU
B23: target 3 insG 3' of 6,insU 3' of 4 (mixed)
RNA 1: CACCCGUGCAAAAUUGCAGGGGUCUAAAACGACCUGAAUAUUUCAGAUCAAA
RNA 2: GGGAAUGGAUCCACAUCUACGAAUUCGUUUUUGAUCUGAAAUAUUCGAGUGUCUGCAGAUCGGAAGAGCACACGU
B24: target 3 insU 3' of 6,insG 3' of 6 (mixed)
RNA 1: CACCCGUGCAAAAUUGCAGGGGUCUAAAACGACCUGAAUAUUUCAGAUCAAA
RNA 2: GGGAAUGGAUCCACAUCUACGAAUUCGUUUUUGAUCUGAAAUAUUCUGAGGUCUGCAGAUCGGAAGAGCACACGU
B25: target 3 G3U,U22G (mixed)
RNA 1: CACCCGUGCAAAAUUGCAGGGGUCUAAAACGACCUGAAUAUUUCAGAUCAAA
RNA 2: GGGAAUGGAUCCACAUCUACGAAUUCGUUGUUGAUCUGAAAUAUUCAGUUCUGCAGAUCGGAAGAGCACACGU
B26: target 1 insG 3' of 21,insA 3' of 2 (mixed)
RNA 1: CACCCGUGCAAAAAUGCAGGGGUCUAAAACUGAGCGGAUAACCUCUCUAUGG
RNA 2: GGGAAUGGAUCCACAUCUACGAAUUCGUACCGAUAGAGAGGUUAUCCGCUCAACCGAGAUCGGAAGAGCACACGU
B27: target 1 insG 3' of 21,insG 3' of 1 (mixed)
RNA 1: CACCCGUGCAAAAAUGCAGGGGUCUAAAACUGAGCGGAUAACCUCUCUAUGG
RNA 2: GGGAAUGGAUCCACAUCUACGAAUUCGUACCGAUAGAGAGGUUAUCCGCUCAGCCGAGAUCGGAAGAGCACACGU

In this data set the target is T1, EsCas13d, nuclease-dead. The experiment in a line: crRNA (strand 1, pre-loaded); Mg2+; 40 mM Tris-HCl pH 7.5, 150 mM NaCl, 6 mM MgCl2, 1 mM DTT, 0.1% Tween-20, 0.2 mg/ml BSA; 25 C; 10 min per concentration, then washed. To be noted: tags: His6-TwinStrep-SUMO cleaved; N-terminal SNAP kept (SNAP-Surface 488); label: 3' end held by stalled T7 RNA polymerase.
The Kd is the equilibrium constant for the complex coming apart. A lower Kd goes with tighter binding. As to B1, the Kd was found to be 13.4 ± 1.35 nM.
The value for B2 was 98.5 ± 35.5 nM; that for B3 was 43 ± 15 nM.
The same measure for B4: 120 ± 32.5 nM.
B5: the Kd came out at 41 ± 14.5 nM.
The value for B6 was 18.6 ± 2.2 nM; that for B7 was 12.9 ± 3.05 nM; that for B8 was 65.5 ± 14.5 nM.
With B9, the affinity, expressed as Kd, was 56.5 ± 9 nM.
The same measure for B10: 39 ± 5 nM; for B11: 41 ± 4.5 nM.
Take B12: binding was put at a Kd of 38.5 ± 8 nM.
The value for B13 was 44.5 ± 10.5 nM; that for B14 was 9.25 ± 0.85 nM; that for B15 was 43 ± 7.5 nM.
B16: the Kd came out at 29.8 ± 3.4 nM.
The same measure for B17: 32.5 ± 5.75 nM; for B18: 14.5 ± 1.2 nM; for B19: 55.5 ± 13 nM.
The value for B20 was 6.15 ± 0.6 nM; that for B21 was 59 ± 21 nM; that for B22 was 5.9 ± 1 nM.
The same measure for B23: 11.3 ± 1.2 nM; for B24: 8.7 ± 0.95 nM.
B25: binding was put at a Kd of 94 ± 21.5 nM.
As for B26, the Kd came to 54 ± 13 nM.
B27 yielded a Kd of 66 ± 10 nM.

Source of the values: paper PMC10786891, “Massively parallel profiling of RNA-targeting CRISPR-Cas13d”.
